Experimental data published in US20240360203A1.
Read-outs that look alike come from different tables or passages of the source.

Assays:
Assay in all cases: cell-based or functional assay
[1] = target: SARS-CoV-2 D614G spike protein (SARS-CoV-2) (UniProt P0DTC2)
[2] = target: SARS-CoV-2 BA.1.1 + P1162S spike protein (SARS-CoV-2)
[3] = target: SARS-CoV-2 BA.5.8 + P1162L spike protein (SARS-CoV-2)
[4] = target: SARS-CoV-2 BA.4/5+K444T Spike on pseudovirus (SARS-CoV-2) (UniProt P0DTC2)
[5] = target: SARS-CoV-2 D614G spike protein (SARS-CoV-2) (UniProt P0DTC2); remark: listed apart in the source
[6] = target: SARS-CoV-2 D614G spike protein (SARS-CoV-2) (UniProt P0DTC2); remark: listed apart in the source
[7] = target: SARS-CoV-2 D614G spike protein (SARS-CoV-2) (UniProt P0DTC2); remark: listed apart in the source
[8] = target: SARS-CoV-2 D614G spike protein (SARS-CoV-2) (UniProt P0DTC2); remark: listed apart in the source

Sotrovimab VH/VL-hamIgG2a (antibody)
pseudovirus neutralization EC50, Vero E6 [1]: 8.51 ng/mL

Bebtelovimab (antibody)
pseudovirus neutralization EC50 [2]: 0.12 ng/mL
pseudovirus neutralization EC80 [2]: 1.4 ng/mL
pseudovirus neutralization EC90 [2]: 6 ng/mL
pseudovirus neutralization Emax (% neutralization) [2]: 100
pseudovirus neutralization EC50 [3]: 0.13 ng/mL
pseudovirus neutralization EC80 [3]: 1.1 ng/mL
pseudovirus neutralization EC90 [3]: 3.7 ng/mL
pseudovirus neutralization Emax (% neutralization) [3]: 99.9
pseudovirus neutralization EC50 [1]: 0.57 ng/mL
pseudovirus neutralization EC50, TMPRSS2-Vero E6 (bebtelovimab + isotype) [1]: 1.7 ng/mL
pseudovirus neutralization EC50, Vero E6 (bebtelovimab + isotype) [1]: 0.64 ng/mL
pseudovirus neutralization EC80 [1]: 4.9 ng/mL
pseudovirus neutralization EC80, TMPRSS2-Vero E6 (bebtelovimab + isotype) [1]: 11 ng/mL
pseudovirus neutralization EC80, Vero E6 (bebtelovimab + isotype) [1]: 2.7 ng/mL
pseudovirus neutralization EC90 [1]: 18 ng/mL
pseudovirus neutralization EC90, TMPRSS2-Vero E6 (bebtelovimab + isotype) [1]: 32 ng/mL
pseudovirus neutralization EC90, Vero E6 (bebtelovimab + isotype) [1]: 6.1 ng/mL
pseudovirus neutralization Emax (% neutralization) [1]: 99.9
pseudovirus neutralization Emax, TMPRSS2-Vero E6 (bebtelovimab + isotype) (% neutralization) [1]: 99.4
pseudovirus neutralization Emax, Vero E6 (bebtelovimab + isotype) (% neutralization) [1]: 99.4
IC50, pseudovirus neutralization [4]: 1220 ng/mL
pseudovirus neutralization EC90, Vero E6 (bebtelovimab + isotype) [5]: 11 ng/mL
pseudovirus neutralization Emax, Vero E6 (bebtelovimab + isotype) (% neutralization) [6]: 99.7
pseudovirus neutralization EC80, Vero E6 (bebtelovimab + isotype) [7]: 2.9 ng/mL
pseudovirus neutralization EC50, Vero E6 (bebtelovimab + isotype) [8]: 0.29 ng/mL

Sotrovimab VH/VL-huIgG1 (antibody)
pseudovirus neutralization EC50, Vero E6 [1]: 27.9 ng/mL

Sotrovimab VH/VL-huIgG1-LS (antibody)
pseudovirus neutralization EC50, Vero E6 [1]: 35.2 ng/mL
pseudovirus neutralization EC90, Vero E6 (sotrovimab VH/VL-huIgG1-LS + isotype) [5]: 170 ng/mL
pseudovirus neutralization Emax, Vero E6 (sotrovimab VH/VL-huIgG1-LS + isotype) (% neutralization) [6]: 98.3
pseudovirus neutralization EC80, Vero E6 (sotrovimab VH/VL-huIgG1-LS + isotype) [7]: 69 ng/mL
pseudovirus neutralization EC50, Vero E6 (sotrovimab VH/VL-huIgG1-LS + isotype) [8]: 14 ng/mL

Sotrovimab VH/VL (human IgG1 molecule expressing the same variable regions of Sotrovimab) (antibody)
IC50, pseudovirus neutralization [4]: 304 ng/mL
